The values below come from US20230279117A1 (published 2023).

Like-named read-outs stand apart in the source and are kept apart here.

Test [1] concerns the target T1, cynomolgus monkey PD-L1/His (cynomolgus monkey (Macaca fascicularis), UniProt G7PSE7 19-239).
T1 construct: not shown: His tag
In words: ELISA, 200 ng PD-L1 protein coated per well. As for the experimental part: The monkey PD-L1/His and murine PD-L1/His were expressed and purified in a similar way to the human PD-L1/His as described earlier. […] The synthesized full length mAb was named as Y1-IgG1mc. The ELISA assay was performed essentially in the same way as described in the previous section. Briefly, 200 ng of PD-L1 protein was coated on each well of Nunc MaxiSorp ELISA plate (Cat. No. 442404, Nunc, Thermo Fisher). After washing and blocking, indicated concentrations of anti-PD-L1 mAbs were added and incubated at room temperature for 1 hour. After washing, the bound anti-PD-L1 mAbs were detected using a HRP-conjugated goat anti-human Fc antibody (Cat. No. A0170, Sigma).
Background: ELISA stands for enzyme-linked immunosorbent assay.

Test [2] concerns the target T2, full length human PD-L1 expressed on cells (human, UniProt Q9NZQ7 19-290). Kind of test: cell-based or functional assay.
In test [3] the target is T2, full length human PD-L1 expressed on …. In words: FACS competition with CD80/Fc on HEK293/PD-L1 cells.
For test [4] the target is unchanged. In words: FACS competition with PD-1/Fc on HEK293/PD-L1 cells.
In test [5] the target is T1, cynomolgus monkey PD-L1/His. Kind of test: SPR (BIAcore T-200), Fab, monkey PD-L1; koff may be too slow to measure.
For test [6], the target named is T3, human PD-L1-ECD/His (human, UniProt Q9NZQ7 19-238).
T3 construct: also called PD-L1/His; human PD-L1/His
T3 sequence (Q9NZQ7 19-238): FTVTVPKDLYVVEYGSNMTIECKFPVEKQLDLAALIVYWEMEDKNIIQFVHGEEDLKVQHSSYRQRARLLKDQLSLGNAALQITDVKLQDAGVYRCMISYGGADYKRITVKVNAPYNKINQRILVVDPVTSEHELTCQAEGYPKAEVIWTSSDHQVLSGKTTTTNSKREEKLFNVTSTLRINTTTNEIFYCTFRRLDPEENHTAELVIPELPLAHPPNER
Kind of test: SPR (BIAcore T-200), PD-L1/His on CM5 chip, Fab injected. The procedure:
(§1) For affinity determinations of anti-PD-L1 Fabs, SPR assays were performed using BIAcore™ T-200 (GE Life Sciences). Briefly, human PD-L1/His was coupled to an activated CM5 biosensor chip (Cat. No. BR100530, GE Life Sciences) to achieve approximately 100-200 response units (RU), followed by blocking un-reacted groups with 1 M ethanolamine. A serial dilutions of 0.12 nM to 90 nM Fab samples were injected, mixed into the SPR running buffer (10 mM HEPES, 150 mM NaCl, 0.05% Tween20, pH7.4) at 30 µL/minute, and binding responses on human PD-L1/His were calculated by substracting of RU from a blank flow-cell. Association rates (kₒₙ) and dissociation rates (koff) were calculated using the one-to-one Langmuir binding model (BIA Evaluation Software, GE Life Sciences). The equilibrium dissociation constant (Kd) was calculated as the ratio koff/kₒₙ.
A general note: SPR reads the build-up and loss of mass on a sensor chip optically.

The target of test [7] is T3, human PD-L1-ECD/His. In words: SPR (BIAcore T-200), Fab, human PD-L1. The procedure:
as §1
(§2) For affinity determinations of anti-PD-L1 Fabs, SPR assays were conducted using BIAcore™ T-200 instrument (GE Life Sciences, Shanghai, China) as described earlier. Association rates (kₒₙ) and dissociation rates (koff) were calculated using the one-to-one Langmuir binding model (BIA Evaluation Software, GE Life Sciences). The equilibrium dissociation constant (Kd) was calculated as the ratio koff/kₒₙ.

For test [8], the target named is T3, human PD-L1-ECD/His. Kind of test: SPR (BIAcore T-200), Fab, human PD-L1; koff may be too slow to measure. As for the experimental part:
as §1, §2

The target in test [9] is T3, human PD-L1-ECD/His. In words: SPR (BIAcore T-200), PD-L1/His on CM5 chip, Fab injected; koff may be too slow to measure. The procedure: as §1
The target of test [10] is T1, cynomolgus monkey PD-L1/His. In words: SPR (BIAcore T-200), Fab, monkey PD-L1.
For test [11], the target named is T2, full length human PD-L1 expressed on …. In words: FACS competition with CD80/Fc on HEK293/PD-L1 cells. This is another data set of the same source.
Test [12] has the same target. Kind of test: FACS competition with PD-1/Fc on HEK293/PD-L1 cells. This is another data set of the same source.
Test [13] shares this target. Kind of test: cell-based or functional assay. This is another data set of the same source.

T1 sequence (G7PSE7 entry or part of it): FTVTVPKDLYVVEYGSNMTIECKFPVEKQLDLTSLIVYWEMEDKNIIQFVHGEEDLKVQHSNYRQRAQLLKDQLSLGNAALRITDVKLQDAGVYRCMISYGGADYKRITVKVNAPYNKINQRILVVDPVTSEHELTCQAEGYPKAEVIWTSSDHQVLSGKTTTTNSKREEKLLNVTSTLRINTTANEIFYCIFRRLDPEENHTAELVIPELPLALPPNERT
T2 sequence (Q9NZQ7 19-290 limits assumed): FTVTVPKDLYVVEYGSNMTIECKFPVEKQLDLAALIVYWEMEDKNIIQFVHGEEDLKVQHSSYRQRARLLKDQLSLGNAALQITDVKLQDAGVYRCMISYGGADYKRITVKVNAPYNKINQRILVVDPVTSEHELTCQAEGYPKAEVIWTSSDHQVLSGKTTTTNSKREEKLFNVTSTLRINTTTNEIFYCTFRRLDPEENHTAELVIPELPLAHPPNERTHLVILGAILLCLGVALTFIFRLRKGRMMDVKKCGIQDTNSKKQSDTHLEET

B1: hu333-4B2-IgG1mc (antibody)
heavy: EVQLVESGGGLVQPGGSLRLSCAVSGFSLTSYGVHWVRQAPGKGLEWVAVIWAGGSTNYADSVKGRFTISKDTSKNTVYLQMNSLRAEDTAVYYCAKPYGTSAMDYWGQGTLVTVSSASTKGPSVFPLAPSSKSTSGGTAALGCLVKDYFPEPVTVSWNSGALTSGVHTFPAVLQSSGLYSLSSVVTVPSSSLGTQTYICNVNHKPSNTKVDKKVEPKSCDKTHTCPPCPAPPAAAPSVFLFPPKPKDTLMISRTPEVTCVVVDVSHEDPEVKFNWYVDGVEVHNAKTKPREEQYNSTYRVVSVLTVLHQDWLNGKEYKCKVSNKALAAPIEKTISKAKGQPREPQVYTLPPSRDELTKNQVSLTCLVKGFYPSDIAVEWESNGQPENNYKTTPPVLDSDGSFFLYSKLTVDKSRWQQGNVFSCSVMHEALHNHYTQKSLSLSPGK
light: DIQMTQSPSSLSASVGDRVTITCKASQDVGIVVAWYQQKPGKAPKLLIYWASIRHTGVPSRFSGSGSGTEFTLTISSLQPDDFATYYCQQYSNYPLYTFGQGTKVEIKRTVAAPSVFIFPPSDEQLKSGTASVVCLLNNFYPREAKVQWKVDNALQSGNSQESVTEQDSKDSTYSLSSTLTLSKADYEKHKVYACEVTHQGLSSPVTKSFNRGEC
notes: also called hu333-4B2-IgGlmc
Take B1: the binding result in test [1] is “binds”.

B2: hu333-4B2-IgG1mf (antibody)
heavy: EVQLVESGGGLVQPGGSLRLSCAVSGFSLTSYGVHWVRQAPGKGLEWVAVIWAGGSTNYADSVKGRFTISKDTSKNTVYLQMNSLRAEDTAVYYCAKPYGTSAMDYWGQGTLVTVSSASTKGPSVFPLAPSSKSTSGGTAALGCLVKDYFPEPVTVSWNSGALTSGVHTFPAVLQSSGLYSLSSVVTVPSSSLGTQTYICNVNHKPSNTKVDKKVEPKSCDKTHTCPPCPAPPAAGPSVFLFPPKPKDTLMISRTPEVTCVVVDVSHEDPEVKFNWYVDGVEVHNAKTKPREEQYNSTYRVVSVLTVLHQDWLNGKEYKCKVSNKALAAPIEKTISKAKGQPREPQVYTLPPSRDELTKNQVSLTCLVKGFYPSDIAVEWESNGQPENNYKTTPPVLDSDGSFFLYSKLTVDKSRWQQGNVFSCSVMHEALHNHYTQKSLSLSPGK
light: DIQMTQSPSSLSASVGDRVTITCKASQDVGIVVAWYQQKPGKAPKLLIYWASIRHTGVPSRFSGSGSGTEFTLTISSLQPDDFATYYCQQYSNYPLYTFGQGTKVEIKRTVAAPSVFIFPPSDEQLKSGTASVVCLLNNFYPREAKVQWKVDNALQSGNSQESVTEQDSKDSTYSLSSTLTLSKADYEKHKVYACEVTHQGLSSPVTKSFNRGEC
For the molecule B2, the binding result in test [1] is “binds”.

B3: hu333-4A2-IgG1mc (antibody)
heavy: EVQLVESGGGLVQPGGSLRLSCAVSGFSLTSYGVHWVRQAPGKGLEWVAVIWAGGSTNYVDSVKGRFTISKDNAKNTVYLQMNSLRAEDTAVYYCAKPYGTSAMDYWGQGTLVTVSSASTKGPSVFPLAPSSKSTSGGTAALGCLVKDYFPEPVTVSWNSGALTSGVHTFPAVLQSSGLYSLSSVVTVPSSSLGTQTYICNVNHKPSNTKVDKKVEPKSCDKTHTCPPCPAPPAAAPSVFLFPPKPKDTLMISRTPEVTCVVVDVSHEDPEVKFNWYVDGVEVHNAKTKPREEQYNSTYRVVSVLTVLHQDWLNGKEYKCKVSNKALAAPIEKTISKAKGQPREPQVYTLPPSRDELTKNQVSLTCLVKGFYPSDIAVEWESNGQPENNYKTTPPVLDSDGSFFLYSKLTVDKSRWQQGNVFSCSVMHEALHNHYTQKSLSLSPGK
light: DIQMTQSPSSLSASVGDRVTITCKASQDVGIVVAWYQQKPGKAPKLLIYWASIRHTGVPSRFSGSGSGTEFTLTISSLQPDDFATYYCQQYSNYPLYTFGQGTKVEIKRTVAAPSVFIFPPSDEQLKSGTASVVCLLNNFYPREAKVQWKVDNALQSGNSQESVTEQDSKDSTYSLSSTLTLSKADYEKHKVYACEVTHQGLSSPVTKSFNRGEC
notes: also called hu333-4A2-IgGlmc
In the case of B3, the binding result in test [1] was “binds”.

B4: hu333-1A Fab (Fab)
heavy (part 1 of 2): EVQLVESGGGLVQPGGSLRLSCAVSGFSLTSYGVHWVRQAPGKGLEWVAVIWAGGSTNYNSALMSRLTISKDNAKNSVYLQMNSLRAEDTAVYYCAKPYGNSAMDYWGQGTLVTVSS
heavy (part 2 of 2): HHHHHHHH
light: DIQMTQSPSTLSASVGDRVTITCKASQDVGIVVAWYQQKPGKAPKLLIYWASIRHTGVPSRFSGSGSGTEFTLTISSLQPDDFATYYCQQYSNYPLYTFGQGTKLEIK
notes: not shown: human IgG2 CH1 (printed IgG2a-CH1); human constant region of kappa chain
B4: in test [2], the “IL-2 release in HuT78/P3Z, IC50” value stood at 0.012 µg/mL and the “IL-2 release in HuT78/PD-1, EC50” value came out at 0.066 µg/mL. Besides, in [3], the concentration for half-maximal inhibition (IC50) (usually the midpoint of a concentration-inhibition curve) turned out to be 0.049 µg/mL. Besides, the IC50 in [4] worked out at 0.057 µg/mL.

B5: hu333-4A2 Fab (Fab)
heavy (part 1 of 2): EVQLVESGGGLVQPGGSLRLSCAVSGFSLTSYGVHWVRQAPGKGLEWVAVIWAGGSTNYVDSVKGRFTISKDNAKNTVYLQMNSLRAEDTAVYYCAKPYGTSAMDYWGQGTLVTVSS
heavy (part 2 of 2): HHHHHH
light: DIQMTQSPSSLSASVGDRVTITCKASQDVGIVVAWYQQKPGKAPKLLIYWASIRHTGVPSRFSGSGSGTEFTLTISSLQPDDFATYYCQQYSNYPLYTFGQGTKVEIK
notes: not shown: human IgG1-CH1; human constant region of kappa chain
B5: the values for the off-rate (koff) (in test [5]; with human PD-L1-ECD/His [8]; with human PD-L1-ECD/His [9]) were 9.3e-06 s⁻¹, 1.03e-05 s⁻¹ and 1.03e-05 s⁻¹, respectively. The Kd – broadly, the constant that tells how readily two partners part at equilibrium – with human PD-L1-ECD/His [6] turned out to be 2.65 pM; with human PD-L1-ECD/His [7], 2.65 pM; in test [10] it was 2.91 pM. Moreover, the on-rate (kon) (usually a measure of how fast the partners come together) with human PD-L1-ECD/His [6] came out at 3.88e+06 M⁻¹ s⁻¹; in the test with human PD-L1-ECD/His [7], 3.88e+06 M⁻¹ s⁻¹; in test [10] it was 3.19e+06 M⁻¹ s⁻¹. In addition, the concentration for half-maximal inhibition (IC50) in [11] is 0.045 µg/mL; in test [12], 0.05 µg/mL. In addition, in test [13], the “IL-2 release in HuT78/P3Z, IC50” value worked out at 0.005 µg/mL. In test [13], the “IL-2 release in HuT78/PD-1, EC50” value came out at 0.05 µg/mL.

B6: hu333-4B2 Fab (Fab)
heavy (part 1 of 2): EVQLVESGGGLVQPGGSLRLSCAVSGFSLTSYGVHWVRQAPGKGLEWVAVIWAGGSTNYADSVKGRFTISKDTSKNTVYLQMNSLRAEDTAVYYCAKPYGTSAMDYWGQGTLVTVSS
heavy (part 2 of 2): HHHHHH
light: DIQMTQSPSSLSASVGDRVTITCKASQDVGIVVAWYQQKPGKAPKLLIYWASIRHTGVPSRFSGSGSGTEFTLTISSLQPDDFATYYCQQYSNYPLYTFGQGTKVEIK
notes: as for B5
In the case of B6, the koff – broadly, a measure of how fast the partners let go of each other – in [5] is 8e-06 s⁻¹; with human PD-L1-ECD/His [8], 1.32e-05 s⁻¹; in the test with human PD-L1-ECD/His [9] it was 1.32e-05 s⁻¹. For the same molecule, the Kd with human PD-L1-ECD/His [6] was 3.5 pM; in the test with human PD-L1-ECD/His [7] it was 3.5 pM; in [10] it was 2.5 pM. Besides, the results for the kon (with human PD-L1-ECD/His [6]; with human PD-L1-ECD/His [7]; in [10]) were 3.78e+06 M⁻¹ s⁻¹, 3.78e+06 M⁻¹ s⁻¹ and 3.2e+06 M⁻¹ s⁻¹, respectively. Besides, the IC50 in [11] came to 0.062 µg/mL; in test [12], 0.053 µg/mL. Further, the “IL-2 release in HuT78/P3Z, IC50” value in test [13] came out at 0.016 µg/mL. In addition, the “IL-2 release in HuT78/PD-1, EC50” value in [13] came to 0.058 µg/mL.
